# From PMC9537594 (2022)
# B1: GST-NUP153_(1306-1450)(LCR-FG-LCR) (domain or fragment)
# chain: FGTGPSAPSASPAFGANQTPTFGQSQGASQPNPPGFGSISSSTALFPTGSQPAPPTFGTVSSSSQPPVFGQQPSQSAFGSGTTPNSSSAFQFGSSTTNFNFTNNSPSGVFTFGANSSTPAASAQPSGSGGFPFNQSPAAFTVGSN
# B2: GST-CPSF6_(261-358)(LCR-FG-LCR) (domain or fragment)
# chain: SDIIPTTENLYFQGAIAEIPIFGLKAGQTPPRPPLGPPGPPGPPGPPPPGQVLPPPLAGPPNRGDRPPPPVLFPGQPFGQPPLGPLPPGPPPPVPGYGPPPGPPPPQQGPPPPPG
# B3: GST-SEC24C_(196-314)(LCR-FG-LCR) (domain or fragment)
# chain: HPGIQTPQRSAPSQASSFTPPASGGPRLPSMTGPLLPGQSFGGPSVSQPNHVSSPPQALPPGTQMTGPLGPLPPMHSPQQPGYQPQQNGSFGPARGPQSNYGGPYPAAPTFGSQPGPPQ
# Biological target: Native HIV-1 cores (mature CA lattice of hexamers and pentamers) (HIV-1)
row,Binder,Kd
1,B1,310 nM
2,B2,890 nM
3,B3,810 nM
